According to the nanobody polyreactivity screen of Harvey et al. (2022):

Experiment: yeast display, Sf9 membrane polyspecificity reagent, FACS + sequencing; frameworks hold sequencing errors
How it was run: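 After 36–48 hours of galactose induction, yeast (Saccharomyces cerevisiae BJ5465) displaying a synthetic nanobody library were stained at 4 °C for 1 hour with 10% biotinylated, detergent-solubilized Sf9 membrane reagent. Streptavidin microbeads enriched the stained cells before FACS sorting into low and high (top ~1%) gates on anti-HA and streptavidin fluorescence. Each clone's polyreactivity label reflects its gate of origin.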

Row | Sequence | polyreactivity (PSR sort gate)
1 | QVQLVESGGGLVQAGGSLRLSCAASGSIFQRNAMGWYRQAPGKERELVASISFSDGTTYYADSVKGRCTISRDNAKNTVYLQMNSLKPEDTAVYYCAKKAIVSDQWDKYDYWGQGTQVTVSS | low polyreactivity
2 | QVQLVESGGGLVQAGGSLRLSCAASGFTLRLYTMGWYIQAPGKERELVAAISRSGGSTYYADSVKGRFTISRDNAKNTVYLQMNSLKPEDPAVYYCNAKNGRPGFNMYHWGQGTQVTVSS | high polyreactivity
3 | QVQLVESGGGLVQAGGSLRLSCAASGRTFYLYAMGWYRQAPGKERELVAAITSGGSTYYADSVKGRFTISRDNAKNTVYLQMNSLKPEDTAVYYCAKRPVSVGYGYPRVSWGYDYWGQGTQVTVSS | high polyreactivity
4 | QVQHVESGGGLVQAGGSLRLSCAASGRIFALYAMGWYRQAPGKERELVAAITSGSTYYADSVKGRFTISRDNAKNTVYLQMNSLKPEDTAVYYCAADLSYWRGGHSRNYWGQGTQVTVSS | low polyreactivity
5 | QVQLEESGGGLVQAGGSLRLSCAASGLIFARNAMGWYRQAPGKERELVAAISKRGGSTFYADSVKGRFTISRDNAKNTVYLQMKSLNPEDTAVYYCNARSSETWHGDYWGQGTQVTVSS | high polyreactivity
6 | QVQLVESGGGLVQAGGSLRLSCAASGFIFYGNTMGWYRQAPGKERELVAAISWSGGTTYYADSVKGRFTISRDNAKNTVYLQMNSLKPEDTAVYYCNRAAFRYRYDYWGQGTQVTVSS | high polyreactivity
7 | QVQLGESGGGLVQAGGSLRLSGAASGRTFNDYTMGWYRPAPGKERELVAAISSSGVLTYYADSVKGRFTISRDNAKYTVYLQMNSLKPEDTAVDYAKRAGYDRRWTYDYRGQGTQVTVSS | high polyreactivity
8 | QVQLVESGGGLVQAGGSLRLSCAASGFYFYSYAMGGYRQAPGKERELVAVISGSGGSTYYADSVKGRFTISRDNAKNTVYLQMNSLKPEDTAVYYCAARNQGNIYGYWGQGTQVTVSS | high polyreactivity
9 | QVQLVESGGGLVQAGGSLRLSCAASGNIFYAYDMGWYRQAPGKERELVAAITNGDSTDYADSVKGRFTISRDNAKNTVYLQMNSLKPEDTAVYYCNADYLPEPWALGGSQYDYWGQGTQVTVSS | low polyreactivity
10 | QVQLVESGGGLVQAGGSHRLSCAASGSIFRRYAMGWYRQAPGKERELVAAIDSGGNTYADSVKGRFTISRDNAKNTVYLQMISLQPEDTAVYYCSADGGEFSSYGYWGQGTQVTVSS | low polyreactivity
11 | QVQLVESGGGLVQAGGSLRLSCAASGSILFYNTMGWYRQAPGKERELVASITSGGSTKYADSVKGRFTISRDNAKNTVYLQMNSLKPEDTAVYYCNADRRFYSIYRWHHYYWGQGTQVTVSS | low polyreactivity
12 | QVQLVESGGGLVQAGGSLRLSCAASGSIFQKYAMGWYRPAPGKERELVAAITSSGSTNYADSVKGRFTISRDNAKNTVYLQMNSLKPEDTAVYYCAADRYAGYYSWYYPLWSSKDDYWGQGTQVTVSS | low polyreactivity
13 | QDQLGESGGGLVQAGGSLRLICAASGRIFPYYAMAWYRQAAGKEREFVASITKRRGSTSYADSVKGRFTISRDNAKNTVYLQMHSLKPEDTAVYYCAARRGSGMVTYYGGDYWGQGTQVTVSS | low polyreactivity
14 | QVQLVESGGGLVQAGGSLRLTCAASGRIFAHYAMGWYRPAPGKERELVAAISSGGSTYYADSVKGRFTISRDNAKNTVYLLMNSLKPEDTAVYYCNKRPVRRKYDYWGQGTQVTVSS | low polyreactivity
15 | QVQLVESGGGLVQAGGSLRLSCAASGSIFYGYDMGWYRQAPGKERELVATISWSSGSSTYYADSVKGRFTISRDNAKNTVYLQMNSLKPEYTAVYYCAVDFAIGYRYLGRVDYWGQGTQVTVSS | low polyreactivity
16 | QVQLVESGGGLVQAGGSLRLSCDASGSIFYFNAMGWYRQAPGKERELVASITSGGSTNYADSVKGRFTISRDNAKNTVYLQMNSLKPEDTAVYYCNARKVTYPLYQDEMEYWGQGTQVTVSS | low polyreactivity
17 | QVQLVESAGGLVQAGGSLSISCAASGLTLTRNAMGWYRQAPGKERELVAAISGRGGSTYYADSVKGRFTISRDNAKNTVYLQMNSLKPEDTAVYYCAATVQYSPIYDYWGQGTQVTVSS | high polyreactivity
18 | QVQLVESGGGLVQAGGSLRLSCAASGSTFVLYAMGWYRQAPGKERELVAAITWTGGTTNYADSVKGRFTISLDNAKNTDYLQMNILQPEDTAVSYCAAKTNGRYDYWGQGTQVTVSS | low polyreactivity
19 | QVQLVESGGGLVQAGGSLRLSCAASGRIFPVYAMGWYRQAPGKERELVAAIDYSDGSTYYADSVKGRFTISRDNAKNTVYLQMNSLKPEDTAVYYCAADYDAIYLWWGYDYWGQGTQVTVSS | low polyreactivity
20 | QYQLVESGGGLVHEGGSLSLRCAASGSNLYYYAMGWYRKAPGKERDLDAAITYSGGNTYYADSVKGRFTISRDNAKNNVYLQMNSLKPEDTAVYYCAADDWSSDYIRYEYWGQGTQVTVSS | low polyreactivity
21 | QVQLVESGGGLVQAGGSLRLSCAASGSILSGYAMGWYRQAPGKETELVAAITSGGDTNYADSVKGRFTISRDNAKNTVYLQMNSLKPEDTAVYYCNRRGDFRIAYYDPMDYWGQGTQVTVSS | low polyreactivity
22 | QVQLEESGGGLVQAGGSLRLSCAASGSIFALYAMGWYRQAPGKERELVAAISYRGGRTYYADSVKARFTISRDYAKNTVYLQMNILKPEDTAVYYCATDFPCKFDFWGQGTQVTVSS | low polyreactivity

Row | Sequence | polyreactivity (PSR sort gate)
23 | QVQLVESGGGLVQAGGSLRLSCAASGRLFSRYAMGWNRQAPGQQRELVAAITRGGGSTYYADSVKGRFTISRDNAKNTVYLQMNSLKPEDTAVYYCNKASVQYYGDVYWGQGTQVTVSS | high polyreactivity
24 | QVQLVESGGGLVQAGGSLRLSCAASGRIFEVYVMGWYRQAPGKERELVAAITTSGGSTYYADSVKGRFTISRDNAKNTVYLQMNSLKPEDTAVYYCNRYWHLAGSWGQGTQVTVSS | low polyreactivity
25 | QVQLEESGGGLVQAGGSLRLSCAATGSTIPYYAMGWYRQAPGKERELVARITSGDRTFYADSVKGRFTISRDNAKNTVYLQMNSLKPEDTAVYFCNAQVHYYSWYGYWGQGTQVTVSS | high polyreactivity
26 | QVQHVESGGGLVQAGGSLRLSCGASGITLYGYAMGWYRQAPGKEREFVAAISRSGDRTYYADSVKGRFTISRDNAKNTVYLQMNSLKPEDTAVYYCNAWRYDYWGQGTQVTVSS | high polyreactivity
27 | QVQHVESVRGLVQAGGSLRLSCDASGIIFYSYAMGWYRQAPGKERELVARISTRGGSTYYADSVKGRFTISRDNAKNTVYLQMNSLKPEDTAVYYCAARYSRYIRFPYDYWGQGTQVTVSS | high polyreactivity
28 | QVQLEESGGCLVQAGGSLRLSCAASGSTFSNYAMGWYRLAPGKESELVAAISYSGARTDYADSVKGRFTISRDNAKHTVYFQMHSLKPEDTAVYYCAAQVLSRHANPYAYYYWGQGTQVTVSS | high polyreactivity
29 | QDHLVESGGGLVQAGGSLRLSCAASGSISWKNAMGWYRQAPGKERELVAAISSTVTYYADSVKGRFTISRDNAKNTVYLQMNSLKPEDTAVYYCAAVYLGYTTLYTGDYCGQGTQVTVSS | low polyreactivity
30 | QVQLVESGGGLVQAGGRLRLICDASGRIFYRYAIGWYRQAPGKERELVAVITSSGGRTYYADSVKGRFTISRDTAKNTVYLPMNSLKPEDTAVYYCTAYVRRIVRSYYWGQGTQVTVSS | high polyreactivity
31 | QVQLHESGGGLVQSGGSLRLICAASGSISHYIFMGWYRQAPGKEREFVAGIGYGGTTNNADSVKGRFTISRDNAKNTVYLQMNSLKPEDTAMYYCAAREATEFYLDYWGQGTQVTVSS | low polyreactivity
32 | QVQLVESGGGLVQAGGSLRLSCAASGRTFWKNTMGWYRQAPGKERELVAVISSGGVSTSYADSVKGRFTISRDNAKNTVYLQMNSLKPEDTAVYYCAADGYYIGPYDYWGQGTQVTVSS | low polyreactivity
33 | QVQLVESGGGLVQAGGSLRLSCAASGIIFPVYAMGWYRQAPGKERELVAAISNRAGSTYYADSVKGRFTISRDNAKNSVYLQMNSLKPEDTAVYYCAAASRRSGASSWYDYWGQGTQVTVSS | high polyreactivity
34 | QVQLVESGGGLVQAGCSLRLSCAASGLTLRHYAMGWYRQSPGKERELVAAISWNTGSTYYADSVKGRFTISRDNAKNTVYLQMNSLKPEDTAVYYCAAVPRAYYQGLYYWGQCTQVTVSS | high polyreactivity
35 | QVQLVESGGGLVQAGGSLRLSCAASGRIFGDYAMGWYRQAPGKERELVAAISYSGGSTYYADSVKGRFTISRDNAKNTVYLQMNSLKPEDTAVYYCNKRWYTYGRYGVQGYDYWGQGTQVTVSS | high polyreactivity
36 | QVQLVESGGGLVQAGGSLRISCAASGSTFRRYPIGWYRQAPGKEREFVAVITSSGVITYYADSVKGRFTISRDNAKNTVYLQMNSLKPEDTAVYYCATDARSMDYWGQGTQVTVSS | low polyreactivity
37 | QVQHVESGGGIVQAGGSLRLSCAASGSTFFGNGMGWYRQAPGKERELVAAISGGGSTHYADSVKGRFTSSRDNAKNTVYVQMNSLKPEDTAVYYCSPSRDTVGRGPIQRDYWGQGTQVTVSS | low polyreactivity
38 | QVQLVESGGGLVQAGGSLRLSCAASGFTFVDYAMGWYRQAPGKERELVAAISSSGDSTYYADSVKGRFTISRDNAKITVYLQMNSLKPEDTAVYYCAAEYDREEYSGYDYWGQGTQVTVSS | low polyreactivity
39 | QVQVVESGGGLVQAGGSLGLSCAASGRTFGSNAMGWYRQAPGKERELVAAISSTVSTNYADSVKGRFTISSDNANNTVYLQMNSLKPEDTAVYFCNVTRHYSYVSEYDYWGQGTQVTVSS | low polyreactivity
40 | QVQIVESGGGLVQAGGRLRLSCAYSGLIISWYAMGCDIQSPGKERELVAAISGSVGSTYYADPVKGRFTISRDNAKNTVYLQMNSLKPEDTAVYYCAARSKDGGGPMYYWGQGTQVTVSS | high polyreactivity
41 | QVQLVESGGGLVQAGGSLRLSCAASGRTFVRYAMGWYRQAPGKERELVAAISTSGGNTYYADSVKGRFTISRDNAKNTVYLQMNSLKPEDTAVYYCAKDRGPNAKFDYWGQGTQVTVSS | low polyreactivity
42 | QVQLVDSGGGLVQAGGSLRLSCAASGSIFYYNAMGWYRPAPGKERELVAAITSSGGSTYYADSVKGRFTISRDNAKNTVYLQMNSLKPEDTAVYYCYAGATALRYRPYSSAYDYWGQGTQVTVSS | low polyreactivity
43 | QVQLVESGGGLVQAGGSLRLSCAASGGIFDINAMGWYRQAPGKERELVAAITQSGGSTYYADSVKGRFTISRDNAKKTVYLQMNSLKPEDTAVYYCAKAVWYQGFDYWGQGTQVTVSS | high polyreactivity
